According to patent US20250353912A1 (NEW YORK UNIVERSITY, published 2025):

Columns and labels:
[1] = target: T1, HLA-A*03:01 in complex with the KRAS (wild type) peptide … (human); assay: flow cytometry on peptide-loaded Raji cells (FIG. 16)
T1 construct: also called HLA-A*03:01_WTRAS

[2] = target: T2, HLA-A*01:01 in complex with the BTK peptide … conjugated with Ibrutinib (human, ibrutinib covalently bound to Cys); assay: phage display selection; MBBA
T2 construct: also called HLA-A*01:01_BTK-Ibrutinib

[3] = target: T3, HLA-A*11:01 in complex with the KRAS (wild type) peptide … (human); assay: MBBA titration of purified IgG (FIG. 11)
T3 construct: also called HLA-A*11:01_WTRAS

[4] = target: T1, HLA-A*03:01 in complex with the KRAS …; assay: MBBA titration of purified IgG (FIG. 11)
[5] = target: T4, HLA-A*02:01 in complex with the EGFR peptide … conjugated with osimertinib (human, osimertinib covalently bound to Cys); assay: phage display selection; MBBA
T4 construct: also called HLA-A*02:01_EGFR-osimertinib; osimertinib-EGFR/HLA-A*02

Binder | binding result [2] | binding result [3] | binding result [4] | further results
P2AMR-1 in the human IgG1 format (antibody, V domains shown, human IgG1; also called P2AMR-1 IgG) VH: QVQLVQSEPEVKKPGSSVKLSCKASGGTFSTDAITWVRQAPGQGLEYMGGIIPLLDSVDYAQRFQGRVTVSADKSTGTAYMEVRSLGSEDTAKYYCAKWSSVDTGLDYWGQGTLVTVSS VL: QSVLIQPRSVSGSPGQSVTISCTGTSSDVGGYNYVSWYQQHPGKAPKLMIYDVSKRPSGVPDRFSGSKSGNTASLTVSGLQAEDEADYYCGSYADTDTIVFGTGTKLTVL |  |  |  | binding result [1]: no binding
IBA1-7 (antibody, V domains shown, phage-display clone) VH: EVQLVESGGGLVQPGGSLRLSCAASGFTLSSSSIHWVRQAPGKGLEWVASISSYYGSTSYADSVKGRFTISADTSKNTAYLQMNSLRAEDTAVYYCARMHYSWQEYYSYDWGMDYWGQGTLVTVSS VL: DIQMTQSPSSLSASVGDRVTITCRASQSVSSAVAWYQQKPGKAPKLLIYSASSLYSGVPSRFSGSRSGTDFTLTISSLQPEDFATYYCQQSYWWKSLVTFGQGTKVEIKR | binds |  |  | 
IBA1-21 (antibody, V domains shown, phage-display clone) VH: EVQLVESGGGLVQPGGSLRLSCAASGFTISSSSIHWVRQAPGKGLEWVASISSYYGYTSYADSVKGRFTISADTSKNTAYLQMNSLRAEDTAVYYCARYYSYSSGYGYYDYFDWGAMDYWGQGTLVTVSS VL: DIQMTQSPSSLSASVGDRVTITCRASQSVSSAVAWYQQKPGKAPKLLIYSASSLYSGVPSRFSGSRSGTDFTLTISSLQPEDFATYYCQQMQYSGWLITFGQGTKVEIKR | binds |  |  | 
AMRA3-7 (antibody, human IgG1, V domains shown, phage-display clone; purified as human IgG1/kappa; also called AMRA3-7 hIgG1) VH: EVQLVESGGGLVQPGGSLRLSCAASGFTFSSYSIHWVRQAPGKGLEWVASIYSSYGYTSYADSVKGRFTISADTSKNTAYLQMNSLRAEDTAVYYCARGGWYPAMDYWGQGTLVTVSS VL: DIQMTQSPSSLSASVGDRVTITCRASQSVSSAVAWYQQKPGKAPKLLIYSASSLYSGVPSRFSGSRSGTDFTLTISSLQPEDFATYYCQQISYVYSLITFGQGTKVEIKR |  | no binding | no binding | 
AMRA3-18 (antibody, human IgG1, V domains shown, phage-display clone; purified as human IgG1/kappa; also called AMRA3-18 hIgG1) VH: EVQLVESGGGLVQPGGSLRLSCAASGFTVSYSSIHWVRQAPGKGLEWVASISSSSGYTSYADSVKGRFTISADTSKNTAYLQMNSLRAEDTAVYYCARYAWWAHGLDYWGQGTLVTVSS VL: DIQMTQSPSSLSASVGDRVTITCRASQSVSSAVAWYQQKPGKAPKLLIYSASSLYSGVPSRFSGSRSGTDFTLTISSLQPEDFATYYCQQGSYTYRLITFGQGTKVEIKR |  | no binding | no binding | 
IBA1-19 (antibody, V domains shown, phage-display clone) VH: EVQLVESGGGLVQPGGSLRLSCAASGFTFSYSSIHWVRQAPGKGLEWVASIYPSSGYTSYADSVKGRFTISADTSKNTAYLQMNSLRAEDTAVYYCARGWWYWMAWDYAMDYWGQGTLVTVSS VL: DIQMTQSPSSLSASVGDRVTITCRASQSVSSAVAWYQQKPGKAPKLLIYSASSLYSGVPSRFSGSRSGTDFTLTISSLQPEDFATYYCQQSWMSDSLITFGQGTKVEIKR | binds |  |  | 
OEA2-12 (antibody, V domains shown, phage-display clone) VH: EVQLVESGGGLVQPGGSLRLSCAASGFTIYSSSIHWVRQAPGKGLEWVASISSYYGYTSYADSVKGRFTISADTSKNTAYLQMNSLRAEDTAVYYCARYQYYGSLYYSQQWAMDYWGQGTLVTVSS VL: DIQMTQSPSSLSASVGDRVTITCRASQSVSSAVAWYQQKPGKAPKLLIYSASSLYSGVPSRFSGSRSGTDFTLTISSLQPEDFATYYCQQYDWNYYLVTFGQGTKVEIKR |  |  |  | binding result [5]: binds
IBA1-13 (antibody, V domains shown, phage-display clone) VH: EVQLVESGGGLVQPGGSLRLSCAASGFTLSSSSIHWVRQAPGKGLEWVASIYSSYGYTYYADSVKGRFTISADTSKNTAYLQMNSLRAEDTAVYYCARYYYYWYGGMDYWGQGTLVTVSS VL: DIQMTQSPSSLSASVGDRVTITCRASQSVSSAVAWYQQKPGKAPKLLIYSASSLYSGVPSRFSGSRSGTDFTLTISSLQPEDFATYYCQQGHDMNPVTFGQGTKVEIKR | binds |  |  | 
OEA2-21 (antibody, V domains shown, phage-display clone) VH: EVQLVESGGGLVQPGGSLRLSCAASGFTFSSSYIHWVRQAPGKGLEWVASISPSYGYTSYADSVKGRFTISADTSKNTAYLQMNSLRAEDTAVYYCARDMYEWWHWAIDYWGQGTLVTVSS VL: DIQMTQSPSSLSASVGDRVTITCRASQSVSSAVAWYQQKPGKAPKLLIYSASSLYSGVPSRFSGSRSGTDFTLTISSLQPEDFATYYCQQSSWGGLVTFGQGTKVEIKR |  |  |  | binding result [5]: binds
AMRA11-15 (antibody, human IgG1, V domains shown, phage-display clone; purified as human IgG1/kappa) VH: EVQLVESGGGLVQPGGSLRLSCAASGFTVYYSSIHWVRQAPGKGLEWVASIYSYYGSTYYADSVKGRFTISADTSKNTAYLQMNSLRAEDTAVYYCARGEKWALDYWGQGTLVTVSS VL: DIQMTQSPSSLSASVGDRVTITCRASQSVSSAVAWYQQKPGKAPKLLIYSASSLYSGVPSRFSGSRSGTDFTLTISSLQPEDFATYYCQQFDFQYLITFGQGTKVEIKR |  | no binding | no binding | 
IBA1-8 (antibody, V domains shown, phage-display clone) VH: EVQLVESGGGLVQPGGSLRLSCAASGFTISYSSIHWVRQAPGKGLEWVASIYPSYGSTSYADSVKGRFTISADTSKNTAYLQMNSLRAEDTAVYYCARWQGYYQPALDYWGQGTLVTVSS VL: DIQMTQSPSSLSASVGDRVTITCRASQSVSSAVAWYQQKPGKAPKLLIYSASSLYSGVPSRFSGSRSGTDFTLTISSLQPEDFATYYCQQPYYPLITFGQGTKVEIKR | binds |  |  | 
AMRA311-17 (antibody, human IgG1, V domains shown, phage-display clone; purified as human IgG1/kappa; also called AMRA311-17 hIgG1) VH: EVQLVESGGGLVQPGGSLRLSCAASGFTISSSSIHWVRQAPGKGLEWVASISSYSGSTYYADSVKGRFTISADTSKNTAYLQMNSLRAEDTAVYYCARYPYGSHVYTGLDYWGQGTLVTVSS VL: DIQMTQSPSSLSASVGDRVTITCRASQSVSSAVAWYQQKPGKAPKLLIYSASSLYSGVPSRFSGSRSGTDFTLTISSLQPEDFATYYCQQSSSSLITFGQGTKVEIKR |  | no binding | no binding | 
AMRA3-22 (antibody, human IgG1, V domains shown, phage-display clone; purified as human IgG1/kappa; also called AMRA3-22 hIgG1) VH: EVQLVESGGGLVQPGGSLRLSCAASGFTFYSSSIHWVRQAPGKGLEWVAYIYSSSGYTSYADSVKGRFTISADTSKNTAYLQMNSLRAEDTAVYYCARPVNYYYQGALDYWGQGTLVTVSS VL: DIQMTQSPSSLSASVGDRVTITCRASQSVSSAVAWYQQKPGKAPKLLIYSASSLYSGVPSRFSGSRSGTDFTLTISSLQPEDFATYYCQQSDMPPITFGQGTKVEIKR |  | no binding | no binding | 
AMRA311-16 (antibody, human IgG1, V domains shown, phage-display clone; purified as human IgG1/kappa; also called AMRA311-16 hIgG1) VH: EVQLVESGGGLVQPGGSLRLSCAASGFTISSSSIHWVRQAPGKGLEWVAYISSYSGYTYYADSVKGRFTISADTSKNTAYLQMNSLRAEDTAVYYCARYWYGHYHSYFGLDYWGQGTLVTVSS VL: DIQMTQSPSSLSASVGDRVTITCRASQSVSSAVAWYQQKPGKAPKLLIYSASSLYSGVPSRFSGSRSGTDFTLTISSLQPEDFATYYCQQSSSSLITFGQGTKVEIKR |  | no binding | no binding | 
OEA2-16 (antibody, V domains shown, phage-display clone) VH: EVQLVESGGGLVQPGGSLRLSCAASGFTFSSSSIHWVRQAPGKGLEWVASISSSSGSTSYADSVKGRFTISADTSKNTAYLQMNSLRAEDTAVYYCARSPSSPYFMSWGWYWQYGIDYWGQGTLVTVSS VL: DIQMTQSPSSLSASVGDRVTITCRASQSVSSAVAWYQQKPGKAPKLLIYSASSLYSGVPSRFSGSRSGTDFTLTISSLQPEDFATYYCQQSSSSLITFGQGTKVEIKR |  |  |  | binding result [5]: binds
OEA2-1 (antibody, V domains shown, phage-display clone) VH: EVQLVESGGGLVQPGGSLRLSCAASGFTFSSSSIHWVRQAPGKGLEWVASISSSSGSTSYADSVKGRFTISADTSKNTAYLQMNSLRAEDTAVYYCARYYGYVWGGYWGWWYSKALDYWGQGTLVTVSS VL: DIQMTQSPSSLSASVGDRVTITCRASQSVSSAVAWYQQKPGKAPKLLIYSASSLYSGVPSRFSGSRSGTDFTLTISSLQPEDFATYYCQQSSSSLITFGQGTKVEIKR |  |  |  | binding result [5]: binds
